Measured values as given in publication PMC4636849.

Test system: H-NS
Assay: EMSA
Conditions: EMSA: ~5 ng DNA, 50 ng poly(dI-dC), 15 ul, 20 C 10 min; binding buffer not stated (cited); 7% polyacrylamide gel in TAE (Tris-HCl 40 mM pH 7.4, Na acetate …)

Question: For “mdtJI promoter fragment, 588 bp (-229 to +359)”, which K half is on record?
Answer: Its K half is 320 nM.
